Target: T1, GST-OsDMI3 (rice (Oryza sativa), UniProt Q6AVM3 1-516)
T1 sequence (looked up): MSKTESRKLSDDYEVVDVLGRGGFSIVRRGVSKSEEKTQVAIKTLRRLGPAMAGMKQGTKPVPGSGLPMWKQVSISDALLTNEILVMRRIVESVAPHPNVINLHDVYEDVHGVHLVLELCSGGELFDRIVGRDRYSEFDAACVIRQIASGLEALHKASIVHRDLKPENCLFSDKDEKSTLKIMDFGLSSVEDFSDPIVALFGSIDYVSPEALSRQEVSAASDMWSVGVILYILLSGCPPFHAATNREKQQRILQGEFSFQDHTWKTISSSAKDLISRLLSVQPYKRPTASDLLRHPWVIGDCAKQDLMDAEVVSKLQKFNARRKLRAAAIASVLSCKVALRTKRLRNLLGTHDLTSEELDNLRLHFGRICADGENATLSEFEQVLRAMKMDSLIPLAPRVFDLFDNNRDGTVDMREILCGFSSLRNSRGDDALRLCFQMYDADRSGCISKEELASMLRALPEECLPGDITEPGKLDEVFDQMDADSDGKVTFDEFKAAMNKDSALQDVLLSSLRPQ
Test: pull-down

B1: His-OsMKK6 (enzyme, rice (Oryza sativa), UniProt Q5QN75 1-355, looked up)
chain: MRGKKPHKELKLSVPAQETPVDKFLTASGTFKDGELRLNQRGLQLISEETADEPQSTNLKVEDVQLSMDDLEMIQVIGKGSGGIVQLVRHKWVGTLYALKGIQMNIQEAVRKQIVQELKINQATQNAHIVLCHQSFYHNGVIYLVLEYMDRGSLADIIKQVKTILEPYLAVLCKQVLEGLLYLHHERHVIHRDIKPSNLLVNRKGEVKITDFGVSAVLASSMGQRDTFVGTYNYMAPERISGSSYDYKSDIWSLGLVILECAIGRFPYIPSEGEGWLSFYELLEAIVDQPPPSAPADQFSPEFCAFISSCIQKDPAERMSASELLNHPFIKKFEDKDLDLRILVESLEPPMNISE
- binding result: binds

— doi:10.1101/2020.10.21.348805 (bioRxiv, 2020)
